Earlier results as cited in patent publication US20050191360A1, “Particles for inhalation having rapid release properties” (Advanced Inhalation Research, Inc., priority 2004, published 2005).

Conditions: rat, in vivo

For “PTH34: parathyroid hormone fragment given as dry powder formulation via intratracheal delivery (Patton et al.)”, the “time at which the peak PTH level was reached” value is listed as “about 15 minutes”.
